Source: the DeepSol protein solubility set

Test: soluble on expression in E. coli; label from the status in PepcDB or PDB records

Sequence | soluble on expression in E. coli
MGSDKIHHHHHHMATGSNIRTYFQGSWHEGDAPIIRAADHGAWLGSGVFDGARYFDGMAPDLEAHCARVNRSAEALMLTPTVSTQDMVEIVREGLKAYGPDQAVYIRPMYWGIDGDPTAIIPQADSTGFAVCLEEIPMAPATASATLTTTRFRRPVLEDAVVNAKAGCLYPNNARMLREARSKGFTNALVADALGNVAETATANIFMVKDGEVFTPIANGTFLAGITRARHIKNLRADGVPVHETVLSFADFHAADEVFMSGNMSKVTPVTALDDTQYQIGPIARRARALYWDWAKSTA | not soluble
MRRKETLQETPLTYQELASKILPELHLLAQEAGIEGYKRMKKDQLIMALLERQTQGEGLRLVKGYLEISQDGYGFLTENLHNLESRVAIVSAGLIKQYALRAGDYVVGQARPPRENERYATLLKVEAVNNLDPEAAKNRPRFDELTPQFPDRQIRLETTPDELSTRVIDLLAPIGRGQRGLIVAPPKAGKTTLLKKIANAVLKNEPDIKVIVLLIDERPEEVTDFRESVQGAEVIASTFDEPPQNHIRVAEFVHERAKRIVEEGGHVMILLDSITRLARANNLVTPPTGRTLSGGLDSAALYFPKRFLGAARNIRGGGSLTILATALVETGSRMDDVIFEEFKGTGNMELHLSRRLEERRIFPAIDILKSGTRREELLLGEEVTHKMWLLRKVLADMDPAEAMEMLLARLARTKNNKEFLASLAAR | soluble
MSLSRVPRPHIHQRISVEDIMKGNRRTLAKAITLAESSNPADSTRLGNLLREIHQMATVRTVPRFALSGSPGSGKSSLLDTLGYYLCEKKNMHVGVLAVDPSSTITHGSILGDKTRMEKLGTHLNSYIRPSPSGGHLGGVTSRAWEALEIFEAARFDVVFVETVGVGQSETQCKDLTDMMILLVPPASGDELQGIKKGVVEVADMVVVTKNDGRRKPLVQQTMSAYARAVMYTEEKQGFEKPVIAVSAEEGTNVPELWEAMLKMWNARLESGQIAHLRRAQSTKHFYNYFEMELLAKARRMTNLEMQNMAHRVWEHEMTPREAGDIMVLRTLREHLAADAAVQHDAGKRAEGHHHHHH | soluble
LSESDRGASCAPIGAIADAVKSGKVGSCVNNEYDVPGGKVEDFVSGRAYWSPSTGAHALYGRINARYSEMGGPQSWLGFPISSEFAIKDNARVVQFQNGNIYWSPQRGAIAVPKDIVDKWGEQQWENGFLGFPVAEAKEVAGGFIQEFEGGLVVRTKDNKNQWLRGEIAKKYREMKTAESELGFPVSDEIKINGGAFQQFEHGNIYWSAATGAHFIRKGDIFNTWGVKKWEQGELGFPVTDHTQIPAGGEEITFQHGKISQVNGVIREERR | not soluble
MGSDKIHHHHHHMALKHYKNSDSTVFNDAKALFDLNKNILLKGPTGSGKTKLAETLSEVVDTPMHQVNCSVDLDTESLLGFKTIKTNAEGQQEIVFVDGPVIKAMKEGHILYIDEINMAKPETLPVLNGVLDYRRQITNPYTGEVIKAVPGFNVIAAINEGYVGTLPMNEALKNRFVVIHVDYIDGDILKNVIKEQSLLQDDKQIEQIIKFNEDLRTMSKQGQISEEAASIRALLDLCDLITVMPVERAIKRTIIDKLEDEREQQAIYNAVELNF | not soluble
MMKFDNSYAHLPERFSAAVLPTPVKAPRLIAFNRTLAEELLLDVADLDDDRLAAIFSGNVVPQGAEPLAMAYAGHQFGGFVPQLGDGRAILLGEVIDVNGRRRDIQLKGSGPTPFSRRGDGRAALGPVLREYIVSEAMFALGIPATRALAAVLSGDRVQREVGLPGGVFTRVAASHIRVGTFQFFAAREDDEAIRSLADYVIDRHYPDAKNTENPYLALLRGIAERQCALIARWMMVGFIHGVMNTDNMAVSGETIDFGPCAFLDEYHPNKVFSSIDAQGRYAYNNQPGIAQWNIARLAECLLPLLDPEVEKAAELANAVLADFAAAFPQRWLTGMREKLGLTTEEEGDMDLIQSLLSLMQASEADFTLTFRRLSHAANGDAEPFRGMFIDIAGADAFLTRWRERAGREGISDSERSAAMLSINPAIIPRNHRIEELIEAAVEDGDFEPFHAMLTAIATPFEERPDNFVYMQPPMSHERVFRTFCGTLEHHHHHH | soluble
MNVVILDTGCANLNSVKSAIARHGYEPKVSRDPDVVLLADKLFLPGVGTAQAAMDQVRERELFDLIKACTQPVLGICLGMQLLGRRSEESNGVDLLGIIDEDVPKMTDFGLPLPHMGWNRVYPQAGNRLFQGIEDGAYFYFVHSYAMPVNPWTIAQCNYGEPFTAAVQKDNFYGVQFHPERSGAAGAKLLKNFLEM | soluble
MITQRQNAILNLIVEMFTRTHEPVCSKALQDSIDSSSATIRNDMAKLEKMGYLEKAHISSGRMPSRAGFQYFVANSLNLDTIDEQDVYQVVKAFDFEAFKLEDILDAAAKLLAEMTGCTAVIQDVEPTKQRLTGFEIVQLSNHDALAVLTLDESKPVTVQFAIPKNFLSSDLEIFHKLVQGRFLGNTVLDIHYRLRTETPQIVQKYFKITDNVLDLFDYIFSHLFKELIFIEGKVASLAYADLKTYQFLDNPQHVALALRSAISDDEVTKISVAESTEEALENVTVMSHKFLIPYRGTALMHVIGPIEMDYRRMVSLVNVISRVLVMKLTDYYRYLNSNHYEVFLSRNVLKNIERGECLD | not soluble
MSKLKIAVSDSCPDCFTTQRECIYINESRNIDVAAIVLSLNDVTCGKLDEIDATGYGIPVFIATENQERVPAEYLPRISGVFENCESRREFYGRQLETAASHYETQLRPPFFRALVDYVNQGNSAFDCPGHQGGEFFRRHPAGNQFVEYFGEALFRADLCNADVAMGDLLIHEGAPCIAQQHAAKVFNADKTYFVLNGTSSSNKVVLNALLTPGDLVLFDRNNHKSNHHGALLQAGATPVYLETARNPYGFIGGIDAHCFEESYLRELIAEVAPQRAKEARPFRLAVIQLGTYDGTIYNARQVVDKIGHLCDYILFDSAWVGYEQFIPMMADCSPLLLDLNENDPGILVTQSVHKQQAGFSQTSQIHKKDSHIKGQQRYVPHKRMNNAFMMHASTSPFYPLFAALNINAKMHEGVSGRNMWMDCVVNGINARKLILDNCQHIRPFVPELVDGKPWQSYETAQIAVDLRFFQFVPGEHWHSFEGYAENQYFVDPCKLLLTTPGIDARNGEYEAFGVPATILANFLRENGVVPEKCDLNSILFLLTPAEDMAKLQQLVALLVRFEKLLESDAPLAEVLPSIYKQHEERYAGYTLRQLCQEMHDLYARHNVKQLQKEMFRKEHFPRVSMNPQEANYAYLRGEVELVRLPDAEGRIAAEGALPYPPGVLCVVPGEIWGGAVLRYFSALEEGINLLPGFAPELQGVYIEEHDGRKQVWCYVIKPRDAQSTLLKGEKL | soluble
MGSDKIHHHHHHMDNIKQLSRLIIFAEVVQQGSFTGAAKQLGITKSAVSQQIKSLEADMDIRVLNRTTRGVSTTALGQKLLSRCQVLKDQVDLIFKDIVNAEENPRGRFAITLPHSLESNVVMPAIEQLCIEYPGIEPEIIVSDSSLDLVENNLDVAIHAGDLPDSSYRALPIGTITEIFCATPLYLNKNFTPQKLSDLAQLKWISTSWQKQKMSVYNSTNKEKVTIELTQFSKVNTFSTALAMALRHLGLVLLPDNVAKPLIKSGELVHIMEQFTGPVWPVHTLHAYQREKPVHLTRFHQLLCNHFHNL | not soluble
MPGFSALSGGDKRQPEVNIGVVGHVDHGKTTLVQALTGVWTMRHSEEIRRGMTIKLGYADGEVWECEGCGFPERFSPEPVCECDPQASASLRRRVSYVDAPGHEILMATMLSGAALMDGALLVVAANEPCPQPQTKEHLVALEIIGIKNIVIVQNKVDVVSRERAKESYQEILNFIKGTIAEGSPIIPVSALKRANIDAVLAAIEKFIPTPPRDLDKPPVMYISRSFDVNRPGTPPERLVGGVVGGSIIQGVFRVGDEIEISPGVAVRKPGGRVEYVRLHTTITSLRFGSIEVEEARPGGLVAIGTQLDPSVTKADNLVGNVVGKPGELPEPLTTLRIEHHLLEKVVGMKEEARVEPIRRGEMLMLSVGTAITLGVVTRAGKDEIEVQLRRPVVTWPKARVALSRRIMGRWRLIGWGLIK | soluble
SEEDRRLWMEAMDGREPVYNSNKDNQSEGTAQLDSIGFSIIKKCIHAVETRGINEQGLYRIVGVNSRVQKLLSILMDPKTATETETEICAEWEIKTITSALKTYLRMLPGPLMMYQFQRSFIKAAKLENQESRVSEIHSLVHRLPEKNRQMLHLLMNHLAKVADNHKQNLMTVANLGVVFGPTLLRPQEETVAAIMDIKFQNIVIEILIENHEKIFNTVPETPPSNSQLLL | soluble
